Assay results published in patent US20180057604A1 (Genentech, published 2018).
Where two headings read alike, the source gives them in different places.

T1: cyno TfR extracellular domain (analogous construct to human TfR ecd) (cynomolgus monkey, UniProt Q5RDH6 87-760 (Pongo abelii entry))
T1 construct: also called cynoTfR ecd
T1 chain: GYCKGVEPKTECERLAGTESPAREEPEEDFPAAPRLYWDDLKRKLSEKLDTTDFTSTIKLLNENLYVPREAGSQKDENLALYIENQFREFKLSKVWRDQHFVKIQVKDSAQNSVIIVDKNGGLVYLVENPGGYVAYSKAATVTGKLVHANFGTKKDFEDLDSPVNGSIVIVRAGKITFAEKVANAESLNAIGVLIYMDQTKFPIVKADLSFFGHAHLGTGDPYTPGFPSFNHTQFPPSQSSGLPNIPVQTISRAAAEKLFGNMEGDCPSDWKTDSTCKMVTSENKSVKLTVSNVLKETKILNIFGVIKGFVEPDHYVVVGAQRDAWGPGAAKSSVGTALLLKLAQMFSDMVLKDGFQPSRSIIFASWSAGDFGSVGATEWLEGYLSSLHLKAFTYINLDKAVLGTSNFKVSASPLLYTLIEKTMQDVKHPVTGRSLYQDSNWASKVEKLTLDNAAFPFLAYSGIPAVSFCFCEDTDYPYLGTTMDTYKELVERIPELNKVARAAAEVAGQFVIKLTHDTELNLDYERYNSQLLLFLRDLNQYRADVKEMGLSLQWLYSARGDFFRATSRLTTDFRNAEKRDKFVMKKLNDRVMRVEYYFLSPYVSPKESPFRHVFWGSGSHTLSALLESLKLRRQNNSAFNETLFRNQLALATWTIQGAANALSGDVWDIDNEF


Tests used:
human BACE1 ECD [1] = target: T2, human BACE1 ECD; test: Octet, pH 7.5;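 further: antibodies captured on anti-human capture biosensor tips, dissociation followed in PBS with BSA buffer, kinetics fitted with a one-to-one binding model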
T2 construct: analyte of the Octet assay (200 nM) and enzyme of the first short substrate assay; also called human BACE1 extracellular domain
T2 sequence (single chain, as listed by the source limits assumed): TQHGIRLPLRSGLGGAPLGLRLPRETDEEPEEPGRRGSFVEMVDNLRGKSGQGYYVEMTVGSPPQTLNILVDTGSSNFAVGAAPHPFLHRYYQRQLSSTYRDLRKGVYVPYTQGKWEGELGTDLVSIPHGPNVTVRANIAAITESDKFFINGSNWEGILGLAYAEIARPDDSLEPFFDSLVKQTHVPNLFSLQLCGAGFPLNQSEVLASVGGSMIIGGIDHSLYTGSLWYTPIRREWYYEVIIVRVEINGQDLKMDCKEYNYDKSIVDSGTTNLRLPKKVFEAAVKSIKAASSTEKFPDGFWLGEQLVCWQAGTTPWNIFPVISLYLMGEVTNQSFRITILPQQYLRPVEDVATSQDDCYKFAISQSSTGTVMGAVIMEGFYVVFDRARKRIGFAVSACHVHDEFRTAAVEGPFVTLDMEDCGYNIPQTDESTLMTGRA

murine BACE1 ECD [2] = target: T3, murine BACE1 ECD; test: Octet, pH 7.5;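 further: antibodies captured on anti-human capture biosensor tips, dissociation followed in PBS with BSA buffer, kinetics fitted with a one-to-one binding model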
T3 construct: analyte of the Octet assay (200 nM) and enzyme of the first short substrate assay
T3 sequence (single chain, as listed by the source limits assumed): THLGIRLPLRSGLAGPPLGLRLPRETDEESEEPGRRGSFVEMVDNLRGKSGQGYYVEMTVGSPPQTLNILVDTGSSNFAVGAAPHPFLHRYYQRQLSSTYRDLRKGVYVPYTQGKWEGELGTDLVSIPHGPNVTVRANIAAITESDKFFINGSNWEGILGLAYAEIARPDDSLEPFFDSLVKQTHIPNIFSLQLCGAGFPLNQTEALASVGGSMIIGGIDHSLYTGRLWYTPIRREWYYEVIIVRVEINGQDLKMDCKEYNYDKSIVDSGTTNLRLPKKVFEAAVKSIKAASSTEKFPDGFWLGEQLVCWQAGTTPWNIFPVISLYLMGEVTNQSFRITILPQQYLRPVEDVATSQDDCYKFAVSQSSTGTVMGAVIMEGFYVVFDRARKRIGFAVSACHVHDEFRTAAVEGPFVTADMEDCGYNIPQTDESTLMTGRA

human BACE1 ECD [3] = target: T2, human BACE1 ECD; test: cell-based or functional assay
murine BACE1 ECD [4] = target: T3, murine BACE1 ECD; test: cell-based or functional assay
human BACE1 ECD [5] = target: T2, human BACE1 ECD; test: Octet, pH 5.0;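 further: antibodies captured on anti-human capture sensor tips, dissociation monitored in PBS with BSA buffer, kinetics fitted with a one-to-one binding model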
murine BACE1 ECD [6] = target: T3, murine BACE1 ECD; test: Octet, pH 5.0;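 further: antibodies captured on anti-human capture sensor tips, dissociation monitored in PBS with BSA buffer, kinetics fitted with a one-to-one binding model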
[7] = target: T4, human BACE1 (R&D Systems) (human, UniProt P56817); test: SPR (Biacore)
T4 construct: recombinant, commercial (R&D Systems)
T4 sequence (P56817 22-457 limits assumed): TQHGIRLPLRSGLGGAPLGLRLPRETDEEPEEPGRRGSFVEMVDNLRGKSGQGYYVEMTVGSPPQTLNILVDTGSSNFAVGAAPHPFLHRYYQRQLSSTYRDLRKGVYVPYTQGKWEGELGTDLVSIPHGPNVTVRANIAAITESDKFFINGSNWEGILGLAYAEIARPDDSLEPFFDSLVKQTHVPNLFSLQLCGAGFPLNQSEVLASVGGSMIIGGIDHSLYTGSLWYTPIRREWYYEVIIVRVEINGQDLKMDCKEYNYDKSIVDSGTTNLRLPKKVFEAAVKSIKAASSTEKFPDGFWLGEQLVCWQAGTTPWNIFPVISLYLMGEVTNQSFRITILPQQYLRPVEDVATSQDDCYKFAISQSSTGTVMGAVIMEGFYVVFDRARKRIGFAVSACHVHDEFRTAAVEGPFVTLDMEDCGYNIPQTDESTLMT

[8] = target: BACE1 (HTRF long substrate and FRET short substrate assays of Example 9D); test: cell-based or functional assay
[9] = target: T5, BACE1 in primary mouse cortical neurons (mouse, UniProt P56818 46-501); test: cell-based or functional assay
T5 sequence (P56818 46-501): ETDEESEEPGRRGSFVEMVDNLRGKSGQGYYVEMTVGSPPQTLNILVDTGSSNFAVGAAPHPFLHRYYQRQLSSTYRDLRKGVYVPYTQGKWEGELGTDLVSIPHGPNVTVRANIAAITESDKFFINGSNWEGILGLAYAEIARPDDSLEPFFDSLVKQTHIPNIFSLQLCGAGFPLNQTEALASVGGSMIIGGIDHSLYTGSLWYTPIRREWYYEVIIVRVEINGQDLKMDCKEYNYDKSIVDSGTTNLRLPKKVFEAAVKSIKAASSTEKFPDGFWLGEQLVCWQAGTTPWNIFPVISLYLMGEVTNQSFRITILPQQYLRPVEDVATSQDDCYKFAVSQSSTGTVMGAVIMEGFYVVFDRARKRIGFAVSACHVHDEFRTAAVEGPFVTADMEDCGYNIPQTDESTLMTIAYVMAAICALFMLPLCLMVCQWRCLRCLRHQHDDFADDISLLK

[10] = target: T5, BACE1 in primary mouse cortical neurons; test: cell-based or functional assay; remark: listed apart in the source
[11] = target: T1, cyno TfR extracellular domain …; test: SPR, IgG
[12] = target: T6, human TfR extracellular domain with N-terminal His tag (human, UniProt P02786 89-760); test: SPR, IgG
T6 construct: Biotinylated in some assays; also called huTfR; HuTfR
T6 sequence (P02786 89-760 G142S): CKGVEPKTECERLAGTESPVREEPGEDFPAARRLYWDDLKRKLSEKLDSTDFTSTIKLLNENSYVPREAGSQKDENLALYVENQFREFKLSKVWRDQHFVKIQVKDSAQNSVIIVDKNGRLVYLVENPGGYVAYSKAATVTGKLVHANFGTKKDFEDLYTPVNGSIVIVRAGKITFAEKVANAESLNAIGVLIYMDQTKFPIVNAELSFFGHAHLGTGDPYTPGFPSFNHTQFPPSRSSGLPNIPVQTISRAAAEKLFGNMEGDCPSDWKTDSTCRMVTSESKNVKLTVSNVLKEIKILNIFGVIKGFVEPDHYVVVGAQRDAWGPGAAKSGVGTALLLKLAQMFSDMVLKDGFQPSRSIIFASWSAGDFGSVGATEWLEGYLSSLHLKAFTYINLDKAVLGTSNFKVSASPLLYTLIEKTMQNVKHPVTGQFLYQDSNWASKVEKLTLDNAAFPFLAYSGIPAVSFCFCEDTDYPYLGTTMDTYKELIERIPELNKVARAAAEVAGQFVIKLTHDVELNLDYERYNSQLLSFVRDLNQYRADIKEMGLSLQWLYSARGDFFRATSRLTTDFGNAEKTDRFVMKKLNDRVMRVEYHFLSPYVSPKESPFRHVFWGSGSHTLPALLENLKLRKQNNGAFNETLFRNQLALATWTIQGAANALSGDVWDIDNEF

[13] = target: T1, cyno TfR extracellular domain …; test: SPR, IgG
[14] = target: T6, human TfR extracellular domain with …; test: SPR, IgG; remark: listed apart in the source
[15] = target: T1, cyno TfR extracellular domain …; test: SPR, IgG
[16] = target: T6, human TfR extracellular domain with …; test: SPR, IgG; remark: listed apart in the source

| Binder | Kd (human BACE1 ECD [1]) | Kd (murine BACE1 ECD [2]) | % inhibition of BACE1 activity, short FRET substrate (human BACE1 ECD [3]) | % inhibition of BACE1 activity, short FRET substrate (murine BACE1 ECD [4]) | Kd (human BACE1 ECD [5]) | Kd (murine BACE1 ECD [6]) | Kd [7] | EC50, FRET short substrate [8] | EC50, HTRF long substrate [8] | IC50, Abeta x-40 in mouse cortical neurons [9] | maximal % inhibition of Abeta x-40 [9] | IC50, Abeta x-40 in mouse cortical neurons [10] | maximal % inhibition of Abeta x-40 [10] | Kd [11] | Kd [12] | Kd [13] | Kd [14] | Kd [15] | Kd [16] |
| --- | --- | --- | --- | --- | --- | --- | --- | --- | --- | --- | --- | --- | --- | --- | --- | --- | --- | --- | --- |
| 5888 (antibody, V domains shown, anti-BACE1 IgG) VH: QVQLVQSGAEVKKPGSSVKVSCKASGGTFWKYAISWVRQAPGQGLEWMGNIIPGFGTANYAQKFRGRVTITADESTSTAYMELSSLRSEDTAVYYCARSGGTKYGMLDVWGQGTMVTVSS VL: EIVMTQSPATLSVSPGERATLSCRASQSVSSNLAWYQQKPGQAPRLLIYGASTRATGIPARFSGSGSGTEFTLTISSLQSEDFAVYYCQQLILWPPRTFGGGTKVEIK | 0.86 nM | 1.4 nM | -86% | -183% | 1.8 nM | 2 nM | 4.25 nM | 0.602 nM | 2.5 nM | 1.79 nM | 82% |  |  |  |  |  |  |  |  |
| 5890 (antibody, V domains shown, anti-BACE1 IgG) VH: QVQLVQSGAEVKKPGSSVKVSCKASGGTFSSYAISWVRQAPGQGLEWMGNIIPGFGTANYAQKFQGRVTITADESTSTAYMELSSLRSEDTAVYYCARSGGTKYGMLDVWGQGTMVTVSS VL: EIVMTQSPATLSVSPGERATLSCRASQSVGSNLAWYQQKPGQAPRLLIYGASTRATGIPARFSGSGSGTEFTLTISSLQSEDFAVYYCQQLYTWPPRTFGGGTKVEIK | 0.55 nM | 1 nM | 66% | 69% | 0.64 nM | 0.79 nM | 3.22 nM | 32.4 nM | 4.06 nM | 8.45 nM | 77% |  |  |  |  |  |  |  |  |
| 5891 (antibody, V domains shown, anti-BACE1 IgG) VH: QVQLVQSGAEVKKPGSSVKVSCKASGGTFSSYAISWVRQAPGQGLEWMGNIIPIFGPANYAQKFQGRVTITADESTSTAYMELSSLRSEDTAVYYCARSGGTKYGMLDVWGQGTMVTVSS VL: EIVMTQSPATLSVSPGERATLSCRASQSVGSNLAWYQQKPGQAPRLLIYGASTRATGIPARFSGSGSGTEFTLTISSLQSEDFAVYYCQQLYTWPPRTFGGGTKVEIK | 0.65 nM | 1.4 nM | 71% | 70% | 0.96 nM | 1.1 nM | 3.29 nM | 12.4 nM | 3.03 nM | 18 nM | 78% |  |  |  |  |  |  |  |  |
| 5892 (antibody, V domains shown, anti-BACE1 IgG) VH: QVQLVQSGAEVKKPGSSVKVSCKASGGTFSSYAISWVRQAPGQGLEWMGNIIPIFGTATYAQKFQGRVTITADESTSTAYMELSSLRSEDTAVYYCARSGGTKYGMLDVWGQGTMVTVSS VL: EIVMTQSPATLSVSPGERATLSCRASQSVGSNLAWYQQKPGQAPRLLIYGASTRATGIPARFSGSGSGTEFTLTISSLQSEDFAVYYCQQLYTWPPRTFGGGTKVEIK | 0.88 nM | 1.3 nM | 64% | 64% | 0.39 nM | 1.1 nM | 2.97 nM | 16.4 nM | 1.19 nM | 9.52 nM | 73% |  |  |  |  |  |  |  |  |
| 5893 (antibody, V domains shown, anti-BACE1 IgG) VH: QVQLVQSGAEVKKPGSSVKVSCKASGGTFRGYAISWVRQAPGQGLEWMGNIIPGFGTANYAQKFQGRVTITADESTSTAYMELSSLRSEDTAVYYCARSGGTKYGMLDVWGQGTMVTVSS VL: EIVMTQSPATLSVSPGERATLSCRASQSVGSNLAWYQQKPGQAPRLLIYGASTRATGIPARFSGSGSGTEFTLTISSLQSEDFAVYYCQQLYTWPPRTFGGGTKVEIK | 0.33 nM | 0.98 nM | 72% | 69% | 0.38 nM | 0.73 nM | 2.76 nM | 8.84 nM | 3.59 nM | 9.46 nM | 73% |  |  |  |  |  |  |  |  |
| 5930 (antibody, V domains shown, anti-BACE1 IgG) VH: QVQLVQSGAEVKKPGSSVKVSCKASGGTLSGYAISWVRQAPGQGLEWMGNIIPGFGTANYAQKSQGRVTITADESTSTAYMELSSLRSEDTAVYYCARSGGTRYGMLDVWGQGTMVTVSS VL: EIVMTQSPATLSVSPGERATLSCRASQSVGSNLAWYQQKPGQAPRLLIYGASTRATGIPARFSGSGSGTEFTLTISSLQSEDFAVYYCQQLYTWPPRTFGGGTKVEIK | < 0.29 nM | < 0.3 nM |  |  | < 0.23 nM | < 0.29 nM | 6.41 nM |  |  |  |  | 7.52 nM | 74% |  |  |  |  |  |  |
| 5897 (antibody, V domains shown, anti-BACE1 IgG) VH: QLQLQESGPGLVKPSETLSLTCTVSGGSISWSSYYWSWIRQPPGKGLEWIGSIYKSGRTYYNPSLKSRVTISVDTSKNQFSLKLSSVTAADTAVYYCARVGHGISYFDLWGRGTLVTVSS VL: EIVLTQSPATLSLSPGERATLSCRASQSVSSYLAWYQQKPGQAPRLLIYDASNRATGIPARFSGSGSGTDFTLTISSLEPEDFAVYYCQQSLTWPPRTFGGGTKVEIK | 0.95 nM | 1.1 nM | 1% | -3% | 0.82 nM | 0.82 nM | 2.07 nM | 0.528 nM | 1.39 nM | 0.3 nM | 62% |  |  |  |  |  |  |  |  |
| 16F6 (antibody, V domains shown, Mouse hybridoma antibody; also called clone 16F6) VH: DVQLQESGPGLVKPSQSLSLTCTVTGNSITSEYAWNWIRQFPGNKLEWMGYISYSGTTSYNPSLKSRISITRDTSKNQLFLQLNSVTTEDTATYFCARYGYGNPATRYFDVWGAGTTVTVSS VL: DVQITQSPSYLTASPGETITINCRASKSISKYLAWYQEKPGKTNKLLIYSGSTLQSGIPSRFSGSGSGTDFTLTISNLEPEDFAMYYCQQHNEYPWTFGGGTKLEIK |  |  |  |  |  |  |  |  |  |  |  |  |  | 7.45 nM | 2.07 nM | 7.45 nM | 2.07 nM |  |  |
| 7A4 (antibody, V domains shown, also called clone 7A4) VH: QVQLQQSGPELVRPGVSVKISCKGSGYTFTDYAMHWVKQSHAKSLEWIGGISTYFGRTNYNQKFKGRATMTVDKSSSTAYMELARLTSEDSALYYCARGLSGNYVMDYWGQGTSVTVSS VL: DIVLTQSPASLAVSLGQRATISCRASESVDDYGNSFMHWYQQKPGQPPKLLIYRASNLESGIPARFSGSGSRTDFTLTINPVEADDVATYYCQQSNEAPPTFGGGTKLEIR |  |  |  |  |  |  |  |  |  |  |  |  |  |  |  | 0.627 nM | 0.206 nM | 0.627 nM | 0.206 nM |
| 7A4 HC/8A2 LC (antibody, V domains shown, chimeric IgG; also called ch7A4/8A2) VH: QVQLQQSGPELVRPGVSVKISCKGSGYTFTDYAMHWVKQSHAKSLEWIGGISTYFGRTNYNQKFKGRATMTVDKSSSTAYMELARLTSEDSALYYCARGLSGNYVMDYWGQGTSVTVSS VL: DIVLTQSPASLAVSLGQRATISCRASESVDSYGNSFMHWYQQKPGQPPKLLIYRASNLESGIPARFSGSGSRTDFTLTINPVEADDVATYYCQQSNEGPPTFGGGTKLEIK |  |  |  |  |  |  |  |  |  |  |  |  |  |  |  | 0.925 nM | 0.112 nM | 0.925 nM | 0.112 nM |
